Experiment: soluble on expression in E. coli; label from the status in PepcDB or PDB records

Sequence | soluble on expression in E. coli
KVYSLRLNQKRNEKPSIFANENVRKALAYALDKKSLVDNILADGSKEIYGYIPEKFVYNPETNEDFRQEAGALVKTDAKKAKEYLDKAKAELNGDVAIELLSRDGDSDRKVAEFIQGQLQETLPGLTINVKTVPLNNAIELMRKGDYELSVGMWGPDYQDPMTFLESSVSGNRMNYSSPTFDQLIEEATTKYANEPETRWQTLIKAEKVLVEEDAALIPLYQEA | not soluble
SEEEDDEVMVREGLMASQREIFSISGPIHLTSIDWNNSYHRTSVASCLVQAVYTLERDRQQNRIGLKSQANHWWEFFNFTLAETLIDDSDGSIYGAVFEYKHFFSYNYHHTPHSKPPPRHVIAFRGTILKPHSRSRDLKLDLRCIRDSLHDSTRFVHAIQVIQSAVAKTGNAAVWLAGHSLGAAVALLAGKIMTRSGFPLESYLFNPPFSSIPIEKLVKSEKLKHGVRFAGSLVKAGVAIAVKGRHHNKGQEDDSFMKLASWIPYLYLNPLDTICSEYIGYFKHRNKMFEIGAGKIERIATRNSLRSLLSGGGGGGSSSDSSSEPLHLLPSAYMTINASKSPNFKRAHGIHQWWDPMFNGEYVLHQFNN | soluble
MNFRPIAGIDVGKFFSEMAILSPSNEVIARMKIRHDSSTDVERAVELLKKTEKDFDSRPFVVMESTGHYHKILFHSLYKAGFEVSVINPIQTDSIKNIGIRKVKNDKVDARKIALLYRFQELKIQYPERYGCWTLARNKACEVWYNRKGLAAALR | not soluble
MAAAALRSGWCRCPRRCLGSGIQFLSSHNLPHGSTYQMRRPGGELPLSKSYSSGNRKGFLSGLLDNVKQELAKNKEMKESIKKFRDEARRLEESDVLQEARRKYKTIESETVRTSEVLRKKLGELTGTVKESLHEVSKSDLGRKIKEGVEEAAKTAKQSAESVSKGGEKLGRTAAFRALSQGVESVKKEIDDSVLGQTGPYRRPQRLRKRTEFAGDKFKEEKVFEPNEEALGVVLHKDSKWYQQWKDFKENNVVFNRFFEMKMKYDESDNAFIRASRALTDKVTDLLGGLFSKTEMSEVLTEILRVDPAFDKDRFLKQCENDIIPNVLEAMISGELDILKDWCYEATYSQLAHPIQQAKALGLQFHSRILDIDNVDLAMGKMVEQGPVLIITFQAQLVMVVRNPKGEVVEGDPDKVLRMLYVWALCRDQDELNPYAAWRLLDISASSTEQIL | soluble
MPTKANTQRNWTIMVYLAGDNNLDSAGVVDLKEMKTVGTTDKIAVLAQFDRAGAKQATIRYCLKQGTPLAKDAVQSLGETNMGDPKVLEDFVTWGVANYPADHYLLVLWNHGAGWDDANLYQGDVFSGAAPPVSRKAQPVATRGATAGAKAIPLAQARAGIRRARRALFSTTVEAAIKQRGIAFDDQAQDFLDNIELKRVLTAIKKKLKRKIDIVGMDACLMSMAEVAYQMRDVADYSVGSEETEPGDGWPYDRILKALAAKPAMTPEELSKTIVAQYLASYKATENVTQSAMKLLALNPLATAVDGMAKALTGILGDTAARTALINARSQVQEYSRPYDDYCDLLDLCDLIGKGVASPAVKTACAKVKDAAAAAIVAAGYKGTGVDNSGGISIYFPKRKLSPLYKTLDFTKKTAWDEFLAAYLAGLGRLEHHHHHH | soluble
MGSDKIHHHHHHMSFEQDSTPRGNPVSCESARETNEFSPGKTCIKLMNYRRLTPSMSLLLVFEAAARHESYTRAADELSLSQSAISRQVQTLEDQLGVSLFRREGRSVKLTEVGRRYFVELSGALGRIRGATLQAMSHQAGAGTLRLATLPTFGSKWLLPHLHDFYAAHPGVTVHLHSRIGGIDFHTDDLDAAITVGSGDWPGLHAHRLYNEFLIAIASPDAAGRRKAGPRAPAWAVGQTLLGVTSNQHAWAEWFSHFGLDHREMRIGPSFELTSHLIQAVRAGMGIGLVPKVLVEDELSRNELVSIGDAITSQRSYYLVYPPENDTLPSLVAFREWLLKSC | not soluble
MGSDKIHHHHHHMAVQDLLSQDEIDALLHGVDDGMVQTDIASEPGSVKSYDLTSQDRIVRGRMPTLEMINERFARYTRISMFNLLRRSADVAVGGVQVMKFGEYVHSLYVPTSLNLAKIKPLRGTALFILDAKLVFKLVDNFFGGDGRHAKIEGREFTPTELRVVRMVLDQAFIDLKEAWQAIMEVNFEYINSEVNPAMANIVGPSEAVVISTFHIELDGGGGDLHVTMPYSMIEPIREMLDAGFQSDLDDQDERWVNALKEDVLDVNVPLTTTIAQRQLPLRDILHMRPGDVIPVELSDTLVLRANGVPSFKVKLGSHKGKMALQVIEPIARR | not soluble
MGSDKIHHHHHHVDLMLKSVISYFLPNYCLVCEREIDPNDYLCKDCLTSIRGPIMAPVELLNIDSAHSYWKYESPMKELIRAYKFGDRPGVARLFAKIVFEMIDVFAPSTDVIVPVPTSLQAFIRRGFDTNLRILRHLARTIDIKIDNVLSISGKTVPQSTLKMQDRIDNVRDKFFLRKKPRSTSVILFDDVVTSGATASQCARVLREGGVKEITLLAIASAKK | not soluble
MNIIGLDISKDTIDATLHKTNGSIHYIKFKNNDDGLKQFRLWIKGNRIRKVYIGMEATGIYYEKAADMLSSYYTVYVINPLKIKDYGKSRFNRTKTDKADSNLIADYIKRHQDTLIPYQIPKNKALQKLINLKNQLHQHQKQIKNRLHSTEEDFIRNIHQDLIDTIQDKMEQVKIAISEQIKKQTDNNHYRNLQTIPSIGKDTASVLYAQLTEKHFKTANQFVSYAGLNPAIIQSGTSVRGRGRLSRYGNRRLKSTLYMPALCAYRFNAFPKLINNLKKAGKPKMVIIVAIMRKLAKLAYYIVKTGQPYDAERHRLNQ | not soluble
MAAAGQEKGYLTQTAAALDKSPSLSPQLAAPIRGRPKKCLVYPHAPKSSRLSRSVLRWLQGLDLSFFPRDINRDFSNGFLIAEIFCIYYPWELELSSFENGTSLKVKLDNWAQLEKFLARKKFKLPKELIHGTIHCKAGVPEILIEEVYTLLTHREIKSIQDDFVNFTDYSYQMRLPLVSRSTVSKSIKDNIRLSELLSNPNMLTNELKAEFLILLHMLQRKLGRKLNPEWFDVKPTVGEVTLNHLPAQASGRRYNLKVKRGRVVPVLPNIGSGGSSHREIHVKQAGQHSYYSAMKPIRNMDKKP | soluble
MKLSVYVASAFSKDHKGGNKAGVVFIENSLTTTQKMAIAKQLGYAETAFISESEIADYKFEYFTPKEEVDLCGHATIGSFAILMHLNKLFRNRYTIETNSGVLTITIKDDSIFMEQNNPIFYDVVSPNEFIDCFDMKAIDNKYPIQIVSTGLKDILIPIKSETRLHALQPSFEKIKEISKYYNVVGMHLYTFNDDRIICRNFAPLYDINEEAATGTSNGALACYLHEQHNLQKEVYVFEQGYSLQSPSEILVTLATNSKNEIEKVYVGGKGYYCETKCLNVENME | not soluble
MEKKVQIAVYENENFKRVAEIVKKKSIATVCEEALCPNIMECWGSGTATFMIMGSICTRGCRFCYVLKGKPSPLDDEEPKRVAEAVKEMELDYVVITSVDRDDLSDGGAQHFANVVKTVKELNPGIIVEVLTPDFRGNIDAVKKVIDAGVDVFAHNVETVRRLTPIVRDPRASYEQSLNVLKYAENVIKKSSILLGLGETWDEIVETMRDLRSVGVSILVLSQYMRPSRKQLEVKKRYTLEEFKELEEIAYSMGFSAVISLPLARTSYKAKEAYFRAIENAKNHS | not soluble
MGTKLSVSLEGASTPETAPRVDRPPTFDPQYGFERPRKVREMKATWEEMEQWKLKPAQRDYCAHHLISLMKCQTQNAPFAGHACDGERGAWDKCEYDDHIMRIKEFERERRLLQRQARKEATA | not soluble
RRKPGKCPVTYGQCLMLNPPNFCEMDGQCKRDLKCCMGMCGKSCVSPVKA | soluble
MGSDKIHHHHHHMRHDKFAGPAYTIQIVSNALDMLELLAMRPANPSLGRLAGSLNLTRNKAYRLLSTLCERGLVEQDPETGTYAIGVAALELAQRLIRQAPVVNHAHPIMEELARKHDEAVYMTVLRGDDVVFLDMVDCERQVKATPLIGRRFPYFTNAAGKAIKALEGADPLNLLKKRGRKNNSLDVGSLLSELHEIRHKGVAVDCGGLGDGIVSVAVAVRDYAGKVVGAITMLVPSFRAVADRLESEIIPSLQEGADLLSMKLGHGPC | not soluble
MGSDKIHHHHHHMSQHVLIAGGGIVGCLTAMELVSRGCRVTIVERNNIASQTSGESSWAGTGIMFPLLPWMYSDHVNTLTHYGASLYPDICARLFKETGIDPQMLDSGFLLLPPFDREAALTWCARYQVKAEDTKAAGFGVQSPNGQDALWLPDVKQVRPPCLMHALRTWLENHHVRLLERTELMPLSPGTSRLTAWATTSGELLEADRFIVTSGAWSFELLKEVASKLQIKPMRGQILLYKPEHNPRAVIFREDFYLVPRRDGYLLAGSTLEDVGFDPSVTDTVRDAIRAKAAALMPELADLPILKHWSGLRPGTPENLPIISPHPGIENLYLNTGHFRYGLTMGPASASLAAALVCGETPWTDPTPFSLPQ | not soluble
MGSDKIHHHHHHMSQAIPSSRVGVKINEWYKMIRQFSVPDAEILKAEVEQDIQQMEEDQDLLIYYSLMCFRHQLMLDYLEPGKTYGNRPTVTELLETIETPQKKLTGLLKYYSLFFRGMYEFDQKEYVEAIGYYREAEKELPFVSDDIEKAEFHFKVAEAYYHMKQTHVSMYHILQALDIYQNHPLYSIRTIQSLFVIAGNYDDFKHYDKALPHLEAALELAMDIQNDRFIAISLLNIANSYDRSGDDQMAVEHFQKAAKVSREKVPDLLPKVLFGLSWTLCKAGQTQKAFQFIEEGLDHITARSHKFYKELFLFLQAVYKETVDERKIHDLLSYFEKKNLHAYIEACARSAAAVFESSCHFEQAAAFYRKVLKAQEDILKGRVFICLLRKKVMMCLAVTLVFGSMSFPTLTNSGGFKESTDRNTTYIDHSPYKLSDQKKALS | not soluble
MAGDPMNNNSKNNSRNVVTMNQASQSYAAQESSKMCLFEPRVFSDTQDIADELKNRRATLVNLQRIDQVSAKRIIDFLSGTVYAIGGDIQRVGTDIFLCTPDNVEVAGSITDHIENMEQHYELEHHHHHH | not soluble
MGSDKIHHHHHHMSEQNLIEVRDLAVEFVTGDQVNRVVDGVSFDIRKGETLALVGESGSGKSVTAHSILRLLPYPLARHPSGSIRYEGKDLLQQSEKTLQRIRGNRIAMIFQEPMTSLNPLHCIEKQINEILLLHKGLTGKEATARTLELLDMVGIPEPRKRLKALPHELSGGQRQRVMIAMALANEPELLIADEPTTALDVTVQLKILELLKELQARMGMALLLISHDLNLVRRIAHRVCVMQRGQIVEQAECATLFSSPQHHYTQMLINAEPSGLPAHNPVGAPLLEVDDLKVWFPIKKGFLQRTVDHVKAVDGVNFSLPQGQTLGIVGESGSGKSTLGLAILRLISSQGGIRFHGQNLEGLNQKAVRPLRREMQVVFQDPFGSLSPRMCVADIVGEGLRIHRIGTAQEQEAAIIAALEEVGLDPRTRHRYPHEFSGGQRQRIAIARALVLKPALILLDEPTSALDRTVQRQVVELLRNLQQKYNLTYLFISHDLAVVKALSHQLMVIKHGHVVEQGDAQAIFHAPQHPYTRQLLEAAFLEVGG | not soluble

Source: the DeepSol protein solubility set
